In PMC13269782:

Target: T1, Cx47, human (human) (UniProt Q5T442)
T1 sequence: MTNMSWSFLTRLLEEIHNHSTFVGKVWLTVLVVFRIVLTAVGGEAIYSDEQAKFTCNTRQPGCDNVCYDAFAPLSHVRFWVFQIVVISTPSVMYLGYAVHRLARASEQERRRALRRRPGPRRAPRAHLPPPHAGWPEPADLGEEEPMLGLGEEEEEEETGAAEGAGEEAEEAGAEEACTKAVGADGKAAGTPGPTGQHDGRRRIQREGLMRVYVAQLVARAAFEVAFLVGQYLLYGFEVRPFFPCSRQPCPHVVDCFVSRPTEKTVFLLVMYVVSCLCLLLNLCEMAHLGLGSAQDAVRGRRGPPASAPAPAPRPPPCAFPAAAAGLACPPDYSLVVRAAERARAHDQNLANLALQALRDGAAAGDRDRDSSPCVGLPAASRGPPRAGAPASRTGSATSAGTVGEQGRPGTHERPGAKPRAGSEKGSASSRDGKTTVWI

median junctional conductance (Gj), dual whole-cell patch clamp of DKO HEK293 cell pairs, homotypic; IQR 0.08–7.68; 20 pairs: 1.3 nS
B1: Cx47, human (natural protein)
chain: T1 sequence
